Assay results as given in paper PMC4425898, “High yield purification of Helicobacter pylori neutrophil-activating protein overexpressed in Escherichia coli” (BMC Biotechnology, 2015).

Target: the molecule itself
Assay: native gel or EMSA; native-PAGE (10% acrylamide) of load, unbound, wash and elution fractions of DEAE Sephadex and DEAE Sepharose batch chromatography; 20 mM Tris-HCl, pH 7.0 to 9.0, 50 mM NaCl (1 M NaCl for elution), 4°C

B1: Helicobacter pylori neutrophil-activating protein (natural protein)
chain: MKTFEILKHLQADAIVLFMKVHNFHWNVKGTDFFNVHKATEEIYEEFADMFDDLAERIVQLGHHPLVTLSEAIKLTRVKEETKTSFHSKDIFKEILEDYKYLEKEFKELSNTAEKEGDKVTVTYADDQLAKLQKSIWMLQAHLA
notes: subunit of about 17 kDa on SDS-PAGE; No tag is named; its own experiments show only an oligomer; also called HP-NAP; recombinant HP-NAP; source: E. coli BL21(DE3), plasmid pET42a-NAP; copies: 12
  binding result: binds
